Measured values as given in patent US20200123260A1.

What was measured:
Assay in all cases: cell-based or functional assay
[1] = target: hTrkC in the SHC1 recruitment assay (U2OS, Discoverx Pathhunter) (human) (UniProt Q16288)
[2] = target: hTrkB-a isoform fused to a small peptide epitope, in U2OS cells (Discoverx Pathhunter) (human) (UniProt Q16620)
[3] = target: hTrkA in the SHC1 recruitment assay (U2OS, Discoverx Pathhunter) (human) (UniProt P04629)
Chain of hTrkA in the SHC1 recruitment assay (U2OS, Discoverx Pathhunter) (human) (P04629 33-796): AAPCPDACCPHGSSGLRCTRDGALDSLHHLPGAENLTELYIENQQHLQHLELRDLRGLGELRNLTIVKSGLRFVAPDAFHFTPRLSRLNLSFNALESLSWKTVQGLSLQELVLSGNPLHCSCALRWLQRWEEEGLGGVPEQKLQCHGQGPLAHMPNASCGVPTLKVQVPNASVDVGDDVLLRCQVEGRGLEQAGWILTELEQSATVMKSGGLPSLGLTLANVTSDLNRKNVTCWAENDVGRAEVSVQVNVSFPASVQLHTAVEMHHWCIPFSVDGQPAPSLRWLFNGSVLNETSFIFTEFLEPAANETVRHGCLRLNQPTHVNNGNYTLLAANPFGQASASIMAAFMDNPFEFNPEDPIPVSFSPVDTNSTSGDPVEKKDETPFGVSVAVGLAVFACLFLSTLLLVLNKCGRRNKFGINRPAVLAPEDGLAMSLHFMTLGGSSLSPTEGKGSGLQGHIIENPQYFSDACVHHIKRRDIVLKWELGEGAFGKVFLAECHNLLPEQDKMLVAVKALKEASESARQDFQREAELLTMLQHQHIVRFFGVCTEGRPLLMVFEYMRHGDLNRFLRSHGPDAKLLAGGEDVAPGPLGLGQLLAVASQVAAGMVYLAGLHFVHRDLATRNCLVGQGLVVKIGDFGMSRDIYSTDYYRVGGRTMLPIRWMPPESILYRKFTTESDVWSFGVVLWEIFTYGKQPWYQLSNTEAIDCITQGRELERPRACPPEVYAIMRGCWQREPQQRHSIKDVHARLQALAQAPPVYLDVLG

Chain of hTrkB-a isoform fused to a small peptide epitope, in U2OS cells (Discoverx Pathhunter) (human) (Q16620 32-822): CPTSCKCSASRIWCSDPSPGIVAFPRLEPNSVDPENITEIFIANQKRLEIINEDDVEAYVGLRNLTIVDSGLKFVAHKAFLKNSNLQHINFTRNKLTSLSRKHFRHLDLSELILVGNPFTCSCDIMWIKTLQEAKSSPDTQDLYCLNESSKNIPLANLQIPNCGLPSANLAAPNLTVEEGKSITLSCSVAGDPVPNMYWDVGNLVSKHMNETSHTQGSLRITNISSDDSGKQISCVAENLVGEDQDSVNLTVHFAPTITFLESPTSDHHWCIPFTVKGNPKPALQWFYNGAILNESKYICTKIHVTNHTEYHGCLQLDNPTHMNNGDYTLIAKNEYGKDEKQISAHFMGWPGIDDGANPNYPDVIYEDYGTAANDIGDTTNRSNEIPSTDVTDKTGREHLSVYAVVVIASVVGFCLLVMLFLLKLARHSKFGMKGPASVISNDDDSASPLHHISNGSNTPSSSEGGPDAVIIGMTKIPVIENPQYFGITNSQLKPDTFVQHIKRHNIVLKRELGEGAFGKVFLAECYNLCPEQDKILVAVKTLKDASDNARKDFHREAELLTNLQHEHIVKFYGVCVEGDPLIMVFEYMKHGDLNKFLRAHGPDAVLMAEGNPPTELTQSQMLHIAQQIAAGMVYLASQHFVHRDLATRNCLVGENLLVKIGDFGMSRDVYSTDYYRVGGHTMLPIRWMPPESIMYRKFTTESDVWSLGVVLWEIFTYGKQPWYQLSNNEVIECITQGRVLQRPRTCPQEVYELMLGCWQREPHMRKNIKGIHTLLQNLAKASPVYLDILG
Chain of hTrkC in the SHC1 recruitment assay (U2OS, Discoverx Pathhunter) (human) (Q16288 32-839): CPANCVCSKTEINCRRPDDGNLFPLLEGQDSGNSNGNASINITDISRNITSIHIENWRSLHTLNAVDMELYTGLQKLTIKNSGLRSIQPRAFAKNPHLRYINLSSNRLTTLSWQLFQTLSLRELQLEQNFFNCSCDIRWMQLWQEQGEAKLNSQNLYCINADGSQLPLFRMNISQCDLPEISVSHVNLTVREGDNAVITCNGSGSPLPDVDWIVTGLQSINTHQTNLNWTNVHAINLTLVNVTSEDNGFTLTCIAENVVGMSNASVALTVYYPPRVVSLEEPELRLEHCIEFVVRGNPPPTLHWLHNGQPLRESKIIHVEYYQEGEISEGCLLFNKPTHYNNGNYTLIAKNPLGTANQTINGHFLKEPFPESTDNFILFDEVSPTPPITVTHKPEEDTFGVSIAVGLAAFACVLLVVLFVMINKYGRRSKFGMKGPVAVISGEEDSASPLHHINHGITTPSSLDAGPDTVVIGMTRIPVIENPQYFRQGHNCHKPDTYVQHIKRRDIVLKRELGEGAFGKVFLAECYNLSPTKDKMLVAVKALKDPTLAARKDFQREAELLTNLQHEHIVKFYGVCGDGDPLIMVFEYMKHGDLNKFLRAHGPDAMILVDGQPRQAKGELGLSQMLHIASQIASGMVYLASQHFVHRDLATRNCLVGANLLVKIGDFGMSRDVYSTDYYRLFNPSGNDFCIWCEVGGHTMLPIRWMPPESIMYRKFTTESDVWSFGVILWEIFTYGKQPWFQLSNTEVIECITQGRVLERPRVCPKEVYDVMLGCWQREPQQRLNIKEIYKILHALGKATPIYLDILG
Chain of NGF (R&D 256GF) (ligand) (P01138 122-241): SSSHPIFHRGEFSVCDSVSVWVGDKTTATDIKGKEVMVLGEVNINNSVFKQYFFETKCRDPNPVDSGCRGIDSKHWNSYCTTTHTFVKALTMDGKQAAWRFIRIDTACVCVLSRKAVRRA

Substance | Fold-increase, SHC1 recruitment assay [1] [fold] | Fold-increase, SHC1 recruitment assay [2] [fold] | Fold-increase, SHC1 recruitment assay [3] [fold] | EC50, SHC1 recruitment assay [2] [nM]
hIgG control antibody | 1 | 1.1 | 1.1 | 
NGF (R&D 256GF) (ligand) |  |  |  | 1.59
